# Substitutions are numbered along the chain they refer to.
# B1: SEQ ID NO 19 (VHH)
# VHH: QVQLQESGGGSVQTGGSLRLSCAASTSIYSNNYMAWFSQAPGKGREGVAAVYIGDGRPYYADSVKGRFTISLDSAKNTVYLQMNSLKPEDTAMYYCAAAPGPLSRNYWYTSANYDYWGQGTQVTVSS
# notes: pMECS-expressed; also called VHH numbered 19
# B2: SEQ ID NO 60 (VHH)
# VHH: B1 VHH with N31M, G54E, L72P, S74R
# notes: pMECS-expressed; also called VHH numbered 60
# B3: SEQ ID NO 55 (VHH)
# VHH: B1 VHH with A23V, Y29F, R105H
# notes: pMECS-expressed; also called VHH numbered 55
# B4: SEQ ID NO 17 (VHH)
# VHH: B1 VHH with N31L, G54D, S63H, S74T
# notes: pMECS-expressed; also called VHH numbered 17
# B5: SEQ ID NO 63 (VHH)
# VHH: B1 VHH with G54D, S85R, R105H
# notes: pMECS-expressed; also called VHH numbered 63
# B6: SEQ ID NO 36 (VHH)
# VHH: B1 VHH with I28L, N31Y, I53V, D62A, R105H
# notes: pMECS-expressed; also called VHH numbered 36
# B7: SEQ ID NO 59 (VHH)
# VHH: B1 VHH with A24C, A61T, V79L, R105H
# notes: pMECS-expressed; also called VHH numbered 59
# B8: SEQ ID NO 23 (VHH)
# VHH: B1 VHH with I28L, N31Y, I53V, R105H
# notes: pMECS-expressed; also called VHH numbered 23
# B9: SEQ ID NO 15 (VHH)
# VHH: B1 VHH with G54D, P58T, R105Y
# notes: pMECS-expressed; also called VHH numbered 15
# B10: SEQ ID NO 16 (VHH)
# VHH: B1 VHH with T26P
# notes: pMECS-expressed; also called VHH numbered 16
# B11: SEQ ID NO 24 (VHH)
# VHH: B1 VHH with A23T, A40S, I53M, G54D, V79M
# notes: pMECS-expressed; also called VHH numbered 24
# B12: SEQ ID NO 56 (VHH)
# VHH: B1 VHH with T26P, N31A, N77S, R105H
# notes: pMECS-expressed; also called VHH numbered 56
# B13: SEQ ID NO 49 (VHH)
# VHH: B1 VHH with N31I, G54D
# notes: pMECS-expressed; also called VHH numbered 49
# B14: SEQ ID NO 57 (VHH)
# VHH: B1 VHH with N31I, G54D, P88S
# notes: pMECS-expressed; also called VHH numbered 57
# B15: SEQ ID NO 37 (VHH)
# VHH: B1 VHH with N31I, S38R, G54D, N84T, P88S, N106S
# notes: pMECS-expressed; also called VHH numbered 37
# B16: SEQ ID NO 42 (VHH)
# VHH: B1 VHH with R19T, N31Y, S38R, L72P, N106H, Q119P
# notes: pMECS-expressed; also called VHH numbered 42
# B17: SEQ ID NO 52 (VHH)
# VHH: B1 VHH with S38R, I53V, G54D, L72R, N106H, Q119P
# notes: pMECS-expressed; also called VHH numbered 52
# B18: SEQ ID NO 33 (VHH)
# VHH: B1 VHH with A24C, V79M, R105Q, N106H
# notes: pMECS-expressed; also called VHH numbered 33
# B19: SEQ ID NO 44 (VHH)
# VHH: B1 VHH with Q13R, N31L, G54D, S63H, S74T
# notes: pMECS-expressed; also called VHH numbered 44
# B20: SEQ ID NO 64 (VHH)
# VHH: B1 VHH with G54D, A99T, R105Q, N106H
# notes: pMECS-expressed; also called VHH numbered 64
# B21: SEQ ID NO 69 (VHH)
# VHH: B1 VHH with R105H
# notes: pMECS-expressed; also called VHH numbered 69
# B22: SEQ ID NO 40 (VHH)
# VHH: B1 VHH with V51L, S71A, S85G, S104K, R105H
# notes: pMECS-expressed; also called VHH numbered 40
# B23: SEQ ID NO 51 (VHH)
# VHH: B1 VHH with A23T, N32S, G54D, N106H
# notes: pMECS-expressed; also called VHH numbered 51
# B24: SEQ ID NO 48 (VHH)
# VHH: B1 VHH with G54D, P58T, R105H, T110A
# notes: pMECS-expressed; also called VHH numbered 48
# B25: SEQ ID NO 47 (VHH)
# VHH: B1 VHH with A23T, S30N, A40S, I53M, G54D, V79M
# notes: pMECS-expressed; also called VHH numbered 47
# B26: SEQ ID NO 32 (VHH)
# VHH: B1 VHH with N31I, R105Q, N106H
# notes: pMECS-expressed; also called VHH numbered 32
# B27: SEQ ID NO 14 (VHH)
# VHH: B1 VHH with G54D, M83V
# notes: pMECS-expressed; also called VHH numbered 14
# B28: SEQ ID NO 13 (VHH)
# VHH: B1 VHH with A40N
# notes: pMECS-expressed; also called VHH numbered 13
# B29: SEQ ID NO 66 (VHH)
# VHH: B1 VHH with S30N, I53V, P58T, R105H
# notes: pMECS-expressed; also called VHH numbered 66
# B30: SEQ ID NO 28 (VHH)
# VHH: B1 VHH with S38R, G54D, N106H, Q119P
# notes: pMECS-expressed; also called VHH numbered 28
# B31: SEQ ID NO 30 (VHH)
# VHH: B1 VHH with A23T, G54D
# notes: pMECS-expressed; also called VHH numbered 30
# B32: SEQ ID NO 53 (VHH)
# VHH: B1 VHH with G54D
# notes: pMECS-expressed; also called VHH numbered 53
# B33: SEQ ID NO 31 (VHH)
# VHH: B1 VHH with S38R, A50G, R105H, N106H, Q119P
# notes: pMECS-expressed; also called VHH numbered 31
# B34: SEQ ID NO 68 (VHH)
# VHH: B1 VHH with A23T, A24C, R105H
# notes: pMECS-expressed; also called VHH numbered 68
# B35: SEQ ID NO 25 (VHH)
# VHH: B1 VHH with A23T, R105H
# notes: pMECS-expressed; also called VHH numbered 25
# B36: SEQ ID NO 29 (VHH)
# VHH: B1 VHH with Q13R, T26P, G54D
# notes: pMECS-expressed; also called VHH numbered 29
# B37: SEQ ID NO 22 (VHH)
# VHH: B1 VHH with G42R, R105H
# notes: pMECS-expressed; also called VHH numbered 22
# B38: SEQ ID NO 38 (VHH)
# VHH: B1 VHH with V64A
# notes: pMECS-expressed; also called VHH numbered 38
# B39: SEQ ID NO 35 (VHH)
# VHH: B1 VHH with A23T, G54D
# notes: pMECS-expressed; also called VHH numbered 35
# B40: SEQ ID NO 21 (VHH)
# VHH: B1 VHH with N31L, P88S, N106H
# notes: pMECS-expressed; also called VHH numbered 21
# B41: SEQ ID NO 46 (VHH)
# VHH: B1 VHH with Y29D, S38R, G54D, N106H, Q119P
# notes: pMECS-expressed; also called VHH numbered 46
# B42: SEQ ID NO 41 (VHH)
# VHH: B1 VHH with S38R, V64A, N106H, Q119P
# notes: pMECS-expressed; also called VHH numbered 41
# B43: SEQ ID NO 67 (VHH)
# VHH: B1 VHH with A23T, G54D
# notes: pMECS-expressed; also called VHH numbered 67
# B44: SEQ ID NO 39 (VHH)
# VHH: B1 VHH with V51L, S71A, S85G, S104K, R105H
# notes: pMECS-expressed; also called VHH numbered 39
# B45: SEQ ID NO 26 (VHH)
# VHH: B1 VHH with S30N, G44E
# notes: pMECS-expressed; also called VHH numbered 26
# B46: SEQ ID NO 62 (VHH)
# VHH: B1 VHH with T14A, S38R, A40T, G54D, R105H, N106D, Q119P
# notes: pMECS-expressed; also called VHH numbered 62
# B47: SEQ ID NO 43 (VHH)
# VHH: B1 VHH with T26S, Y29A
# notes: pMECS-expressed; also called VHH numbered 43
# B48: SEQ ID NO 27 (VHH)
# VHH: B1 VHH with A23T, A40S, I53M, G54D, V79M
# notes: pMECS-expressed; also called VHH numbered 27
# B49: SEQ ID NO 54 (VHH)
# VHH: B1 VHH with A24P, S30D, V51I, G54D, R105H
# notes: pMECS-expressed; also called VHH numbered 54
# Biological target: T1, human PD-L1 protein (coated antigen) (human, UniProt Q9NZQ7 19-238, limits assumed)
# T1 construct: Construct not described; also called PD-L1 antigen; antigenic protein PD-L1
# T1 sequence (Q9NZQ7 19-238 limits assumed): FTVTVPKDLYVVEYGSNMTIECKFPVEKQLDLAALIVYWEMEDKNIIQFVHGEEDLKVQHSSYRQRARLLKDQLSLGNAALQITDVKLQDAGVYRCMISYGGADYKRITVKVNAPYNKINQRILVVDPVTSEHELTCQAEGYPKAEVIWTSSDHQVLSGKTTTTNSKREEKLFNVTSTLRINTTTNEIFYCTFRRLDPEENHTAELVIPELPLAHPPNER
# Assay: PE-ELISA, crude extract on coated PD-L1
# Description: (1) From the cell culture dishes containing phage after 3-4 rounds of screening in Example 2, 1000 individual colonies were selected and inoculated into TB medium containing 100 μg/ml of ampicillin (1 liter of TB medium contains 2.3 g of potassium dihydrogen phosphate, 12.52 g of dipotassium hydrogen phosphate, 12 g of peptone, 24 g of yeast extract, 4 ml of glycerol), after growth to log phase, add a final concentration of […] of IPTG, culture at 28° C. overnight. (2) The crude antibody was obtained by the infiltration method, and the antibody was transferred to an antigen-coated ELISA plate and placed at room temperature for 1 hour. (3) Unbound antibody was washed away with PBST, and a mouse anti-HA tag antibody (anti-mouse anti-HA antibody, purchased from Beijing Kangwei Century Biotechnology Co., Ltd.) was added and placed at room temperature for 1 hour. (4) Unbound antibody was washed away with PBST, and anti-mouse alkaline phosphatase conjugate (goat anti-mouse alkaline phosphatase-labeled antibody, purchased from Amytech Co., Ltd.) was added and placed at room temperature for 1 hour. (5) Wash the unbound antibody with PBST, add alkaline phosphatase coloring solution, and read the absorbance at 405 nm on an ELISA apparatus. (6) When the OD value of the sample well is more than 3 times the OD value of the control well (Ratio+/−>3), it is judged as a positive clone hole. (7) The bacteria of the positive clone well were shaken in a LB liquid containing 100 μg per ml to extract a plasmid and perform sequencing.
row,OD ratio (experimental group (A405 nm)/control group (A405 nm)),Binder
1,> 20,B1
2,> 20,B2
3,> 20,B3
4,> 20,B4
5,> 20,B5
6,> 20,B6
7,> 20,B7
8,> 20,B8
9,> 20,B9
10,> 20,B10
11,> 20,B11
12,> 20,B12
13,> 20,B13
14,> 20,B14
15,> 20,B15
16,> 20,B16
17,> 20,B17
18,> 20,B18
19,> 20,B19
20,> 20,B20
21,> 20,B21
22,> 20,B22
23,> 20,B23
24,> 20,B24
25,> 20,B25

row,OD ratio (experimental group (A405 nm)/control group (A405 nm)),Binder
1,> 20,B26
2,> 20,B27
3,> 20,B28
4,> 20,B29
5,> 20,B30
6,> 20,B31
7,> 20,B32
8,> 20,B33
9,> 20,B34
10,> 20,B35
11,> 20,B36
12,> 20,B37
13,> 20,B38
14,> 20,B39
15,> 20,B40
16,> 20,B41
17,> 20,B42
18,> 20,B43
19,> 20,B44
20,> 20,B45
21,> 20,B46
22,> 20,B47
23,> 20,B48
24,> 20,B49

# Reference: patent publication US20190177416A1 (NANOMAB TECHNOLOGY, published 2019)
